Test results as given in patent publication US20050148516.

Tested on: heparan sulfate proteoglycan (HSPG) on HUVEC

**Q.** GnT-VΔ73 was tested. Which “amount of FGF-2 released from HSPG on HUVEC (FGF-2 ELISA of the supernatant, 4 °C)” value did it give?
**A.** GnT-VΔ73 and KRKRKK peptide released FGF-2

**Q.** With GnT-VΔ188 as the substance, how does the “amount of FGF-2 released from HSPG on HUVEC (FGF-2 ELISA of the supernatant, 4 °C)” value read?
**A.** Like GnT-VΔ73, also GnT-VΔ188 and GnT-VΔ233 released FGF-2
